According to US20210087268A1:

Molecular target: T1, TIGIT expressed on cells (TIGIT-expressing effector cell line of the Promega kit; TIGIT-overexpressing NK92 cell line) (UniProt Q495A1)
T1 sequence (looked up): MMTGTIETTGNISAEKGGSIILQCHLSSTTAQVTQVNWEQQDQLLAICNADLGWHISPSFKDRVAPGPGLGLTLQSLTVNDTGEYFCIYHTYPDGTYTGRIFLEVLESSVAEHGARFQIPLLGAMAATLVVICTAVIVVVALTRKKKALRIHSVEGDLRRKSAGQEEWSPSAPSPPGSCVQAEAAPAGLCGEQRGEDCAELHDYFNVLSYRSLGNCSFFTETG
Assay: cell-based or functional assay

Chain of 10A7 antibody (VH): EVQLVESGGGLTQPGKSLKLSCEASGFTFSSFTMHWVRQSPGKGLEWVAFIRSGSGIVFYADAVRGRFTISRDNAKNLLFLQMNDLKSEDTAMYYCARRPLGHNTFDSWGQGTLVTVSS
Chain of 10A7 antibody (VL): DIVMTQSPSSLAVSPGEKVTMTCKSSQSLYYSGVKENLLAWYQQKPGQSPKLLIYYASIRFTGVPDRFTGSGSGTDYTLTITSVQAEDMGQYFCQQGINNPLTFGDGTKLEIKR

## 10A7 antibody
  binding inhibition (EC50), TIGIT/CD155 blockade assay, luminescence fold response: 752 nM
